The results in this text go back to patent US20100221262A1 (Genentech, published 2010).

Test [1] has as its target T1, murine Netrin-1-Fc (Laminin V and VI homology domains, amino acid M1 to amino acid P455, fused to the Fc … (murine; human, UniProt O09118 25-455). Briefly: SPR (ProteOn), Unc5B-Fc immobilised, mNetrin-1 injected at 250 nM. As for the experimental part:
(§1) Binding experiments were performed by surface plasmon resonance SPR measurements on a ProteOn XPR36 instrument (Bio-Rad Laboratories, Inc.) at 25° C. In accordance with common SPR terminology, proteins that are immobilized onto the sensor chip are referred to as ‘ligands’, whereas binding partners injected in solution are referred to as ‘analytes’.
(§2) For binding competition experiments human Unc5B-Fc and Unc5B-His proteins were used as ligands and immobilized at high surface densities (3000-4000 RU) on an activated ProteOn GLC sensor chip (Bio-Rad Laboratories, Inc.). Unc5B antibodies and Netrin-Fc were used as analytes. To perform binding assays, analytes and 1:1 molar mixtures of analytes were injected in PBS, 0.005% v/v Tween-20, pH 7.4, at a flow rate of 100 μl/min and sensorgrams for association and dissociation phases were recorded. Blank surfaces are used for background corrections. Analytes are injected for 240 s and allowed to dissociate for 600 s. […]
(§3) For the SPRs binding experiments Unc5B-His and -Fc proteins were immobilized onto a ProteOn GLC sensor chips and mNetrin-1, Unc5B antibodies or equimolar mixtures of Unc5B antibodies and Netrin-1 were injected as indicated at a concentration of 250 nM. Binding sensorgrams were recorded for association and dissociation reactions. […]

Test [2] has as its target T1, murine Netrin-1-Fc (Laminin V and VI …). As to the kind of experiment: SPR (ProteOn), Unc5B-His immobilised, mNetrin-1 injected at 250 nM. The method, then:
as §1, §2, §3

B1: human Unc5B-Fc (two N-terminal Ig-like domains of Unc5B, amino acid M1 to amino acid V243, fused to the Fc portion of human IgG1) (Fc fusion)
chain: not shown
notes: range 1-243; not shown: Fc portion of human IgG1
B1: the binding result in test [1] is reported as “binds”.

B2: human Unc5B-His (two N-terminal Ig-like domains of Unc5B, amino acid M1 to amino acid V243, C-terminal Histidine tag) (receptor)
chain: not shown
notes: range 1-243; The cloned range M1-V243 includes the native signal peptide; also called human Unc5B-His tagged protein; not shown: C-terminal Histidine tag
Take B2: the binding result in test [2] is on record as “binds”.
